What is called Km is the substrate concentration at which the rate is half of its maximum. In general, kcat refers to the number of substrate molecules converted per active site and unit of time at saturation.

Substrate in this data set: [H][C@@]1(O[C@H]2[C@H](O)[C@@H](O)[C@H](Oc3ccc([N+](=O)[O-])cc3)O[C@@H]2CO)O[C@H](CO)[C@H](O)[C@H](O)[C@H]1O
Briefly: p-nitrophenol release, A405, Michaelis-Menten fit. To be noted: 20 mM acetate pH 5.0, 100 mM NaCl, 40 °C. Type of data set: biochemical, Trichoderma reesei. As for the experimental part:
p-nitrophenol release, A405, Michaelis-Menten fit on […] | Vmax and Km were determined using p-nitrophenyl-β-D-lactopyranoside (pNPL, Sigma) as substrate

B1: TrCel7A (Trichoderma reesei) (protein)
chain: QSACTLQSETHPPLTWQKCSSGGTCTQQTGSVVIDANWRWTHATNSSTNCYDGNTWSSTLCPDNETCAKNCCLDGAAYASTYGVTTSGNSLSIGFVTQSAQKNVGARLYLMASDTTYQEFTLLGNEFSFDVDVSQLPCGLNGALYFVSMDADGGVSKYPTNTAGAKYGTGYCDSQCPRDLKFINGQANVEGWEPSSNNANTGIGGHGSCCSEMDIWEANSISEALTPHPCTTVGQEICEGDGCGGTYSDNRYGGTCDPDGCDWNPYRLGNTSFYGPGSSFTLDTTKKLTVVTQFETSGAINRYYVQNGVTFQQPNAELGSYSGNELNDDYCTAEEAEFGGSSFSDKGGLTQFKKATSGGMVLVMSLWDDYYANMLWLDSTYPTNETSSTPGAVRGSCSTSSGVPAQVESQSPNAKVTFSNIKFGPIGSTGNPSGGNPPGGNRGTTTTRRPATTTGSSPGPTQSHYGQCGGIGYSGPTVCASGTTCQVLNPYYSQCL
notes: full length wild type (catalytic domain, linker, CBM1), secreted and purified from Trichoderma reesei AST1116 (QM6A, cbh1 deletion) host, pTrEno
As to B1, the Michaelis constant (Km) turned out to be 2195 ± 880 µM and the kcat was 0.2377 ± 0.0175 s⁻¹.

The values above are taken from article PMC5864845, “Engineering enhanced cellobiohydrolase activity” (Nature Communications, 2018).
